Assay results reported in US9598483B2, “Monoclonal antibody binding specifically to DLL4 and use thereof” (ABLBIO, priority 2012, dated 2017).
Positions count from the first letter of the chain named. Entries after “also recorded” stand apart in the source; their conditions may differ. Blank lines part the entries; values can stand above or below the molecule they belong to.

Tests used:
[1] = system: DLL4/Notch signaling pathway; assay: Western blotting of NICD in HUVECs on rhDLL4-coated plate (DLL4/Notch signaling pathway); format: cell-based, human; settings: 20 μg/ml MLCK-2 mAb
Source text: In Notch signaling, when DLL4 binds to a Notch receptor, this causes a […] change in the Notch receptor leading to the cleavage thereof, and then an intracellular domain of Notch (NICD) enters the nucleus and mediates a Notch signaling. In this regard, it was confirmed whether the anti-DLL4 antibody of the present invention could inhibit the binding between DLL4 and a Notch receptor, thereby disrupting the Notch signaling through monitoring the inhibition of a Notch receptor cleavage as below.
To be specific, in order to determine the inhibitory activity of the DLL4-binding antibodies against the DLL4/Notch signaling pathway, the inhibition of signaling pathway in HUVECs was analyzed in the present experiment. One day before conducting experiment, a recombinant human DLL4 (rhDLL4, R&D systems) was diluted with carbonate buffer to a final concentration of 1 μg/ml, and then 1 ml/well of the diluted rhDLL4 was added to a 6-well plate (BD) and incubated at 4° C. overnight. […]
Subsequently, the plate was put on ice and HUVECs were collected from each well using a scraper and put into a 1.5 ml tube and stored in ice. […] For SDS-PAGE analysis, the supernatant was added to 5×SDS sample buffer and boiled at 100° c. for 10 minutes analyzed by SDS-PAGE. […]

[2] = system: human umbilical vein endothelial cell (HUVEC); assay: HUVEC proliferation assay on rhDLL4-coated plate (CCK-8); format: cell-based; settings: rhDLL4-coated plate 1 μg/ml; MLCK-2 mAb 20 μg/ml; 96 hours
Description: In order to investigate the effect of DLL4-binding antibodies on proliferation of human umbilical vein endothelial cell (HUVEC), a representative anti-DLL4 antibody, MLCK-2 antibody, was analyzed for the effect thereof on proliferation of HUVEC.
To be specific, human umbilical vein endothelial cell (HUVEC) was purchased from Lonza to be used in this experiment. T-flask (Nunc) was coated with PBS buffer (Gibco) added with 1% gelatin (Sigma) at a room temperature for 4 to 6 hours, washed with PBS, and then it was used for culturing HUVECs. EBM-2 (Lonza) supplemented with EGM-2 Single Quot (Lonza) was used as a culture medium, density of a cell culture was remained below 80%, and the cells were cultured at 37° C. in a 5% CO2 incubator. The cells before passage 6 were used for this experiment. HUVEC proliferation assay was done by following process. First, to prepare the hDLL4-coated plate, one day before conducting the experiment, rhDLL4 (R&D systems) was diluted in a carbonate buffer to a final concentration of 1 μg/ml in a 96-well plate (BD), where 100 μl of the diluted rhDLL4 was inoculated per each well, and the plate was incubated at 4° C. overnight. […] Using the apparatus SpectraMax 190 (Molecular Devices), the absorption of the sample at 450 nm-650 nm was measured and the levels of cell proliferation were compared among different test groups.

[3] = molecular target: T1, human DLL4-His bound to plate-coated Notch 1-Fc (Homo sapiens, UniProt Q9NR61); assay: ELISA-based solution competition (neutralization) test, DLL4 binding to hNotch-1-hFc; settings: antibody concentration of 0.1 μM
T1 construct: The DLL4 antigen protein comprises 27th to 522nd amino acid residues of DLL4; purchased R&D System 1506-D4/CF
T1 sequence (Q9NR61 27-522): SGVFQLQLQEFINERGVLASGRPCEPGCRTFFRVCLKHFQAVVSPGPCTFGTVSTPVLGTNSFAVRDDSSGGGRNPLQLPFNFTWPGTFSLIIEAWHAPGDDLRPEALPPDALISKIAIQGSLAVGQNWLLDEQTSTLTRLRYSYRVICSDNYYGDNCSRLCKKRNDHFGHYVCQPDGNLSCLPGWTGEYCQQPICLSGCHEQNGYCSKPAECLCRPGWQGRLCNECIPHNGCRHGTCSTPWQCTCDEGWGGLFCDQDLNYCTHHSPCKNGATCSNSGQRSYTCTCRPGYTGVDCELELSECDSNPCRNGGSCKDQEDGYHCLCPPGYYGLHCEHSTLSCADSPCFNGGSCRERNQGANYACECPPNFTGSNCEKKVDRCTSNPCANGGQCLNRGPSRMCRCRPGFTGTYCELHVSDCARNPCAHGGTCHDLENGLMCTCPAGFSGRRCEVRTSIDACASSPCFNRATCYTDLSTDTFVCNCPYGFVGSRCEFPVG
Description: The neutralization effects of the anti-DLL4 antibodies were evaluated using an ELISA-based solution competition test.
Each well of a 96-well microtiter plate (Nunc-Immuno Plate, NUNC, Rochester, N.Y.) was coated with 100 μl of 500 ng/ml of hNotch-1-hFc protein (R&D Systems) (diluted in PBS) at 4° C. overnight, and non-specific binding sites were blocked with BSA for 2 hours.
The anti-DLL4 antibody (purified protein) on the 96-well microtiter plate was premixed with serial dilutions of antigen protein (DLL4 antigen, 600 ng/m) at an antibody concentration ranging from 0 nM to 140 nM. The antigen/antibody mixture was incubated for 30 minutes, and then transferred to a microtiter plate precoated with the DLL4 receptor hNotch-1 protein (50 ng/well) in order to measure free […]. Then, the plate was incubated for 2 hours and washed five times with 0.05% tween 20-containing PBS. In order to detect the DLL4 antigen bound to the plate, an HRP-conjugated His […] polyclonal antibody reagent (Roche applied science) was diluted at a ratio of 1:500, and the washed microtiter plate was treated with the diluted antibody reagent, and then allowed to react at 37° C. for 1 hour. Then, color development was performed using a colorimetric substrate (3,3′,5,5′-tetramethylbenzidine; Sigma-Aldrich Co.), and the enzymatic reaction was stopped using 0.5 mol/l of sulfuric acid. The amounts of antibodies required to achieve a 50% decrease in human DLL4-His bound to plate-coated Notch 1-Fc (IC50) are shown in Table 1 below.

B1: MLCK-2: human monoclonal anti-DLL4 antibody; heavy chain variable region SEQ ID NO: 5, light chain variable region SEQ ID NO: 19 (antibody, V domains shown)
VH: EVQLLESGGGLVQPGGSLRLSCAASGFTFSDYAMSWVRQAPGKGLEWVSWIYSGSGNKYYADSVKGRFTISRDNSKNTLYLQMNSLRAEDTAVYYCARADWPFDYWGQGTLVTVSS
VL: QSVLTQPPSASGTPGQRVTISCTGSSSNIGSNDVTWYQQLPGTAPKLLIYADSKRPSGVPDRFSGSKSGTSASLAISGLRSEDEADYYCGTWDYSLSAYVFGGGTKLTVL
modifications: a heavy chain variable region of MLCK-2; a light chain variable region of MLCK-2
level of NICD / Notch signaling (western blotting) [1]: reduced the level of NICD; also recorded: inhibits Notch signaling
effect on DLL4-mediated inhibition of HUVEC proliferation [2]: blocks the DLL4-mediated suppression of HUVEC proliferation
blocking of the bindings between DLL4 and human Notch 1 receptor [3]: blocked most of the bindings

B4: MLCK-1: human monoclonal anti-DLL4 antibody; heavy chain variable region SEQ ID NO: 1, light chain variable region SEQ ID NO: 15 (antibody, V domains shown)
VH: B1 VH with G54D, S55D, W101P
VL: B1 VL with D33N, T35S, A51S, S53N, K54N, G90A, Y94S, S97N, A98G
modifications: a heavy chain variable region of MLCK-1; a light chain variable region of MLCK-1
blocking of the bindings between DLL4 and human Notch 1 receptor [3]: blocked most of the bindings

Other lines, results leading:

blocking of the bindings between DLL4 and human Notch 1 receptor [3]: blocked most of the bindings
B2: MLCK-4: human monoclonal anti-DLL4 antibody; heavy chain variable region SEQ ID NO: 11, light chain variable region SEQ ID NO: 27 (antibody, V domains shown)
VH: EVQLLESGGGLVQPGGSLRLSCAASGFTFSNYAMSWVRQAPGKGLEWVSWIYHGGGDTYYADSVKGRFTISRDNSKNTLYLQMNSLRAEDTAVYYCARGPNYTFGKPFDYWGQGTLVTVSS
VL: B1 VL with T23R, S26P, S31N, D33T, T35Y, A51S, K54Q, T91S
modifications: a heavy chain variable region of MLCK-4; a light chain variable region of MLCK-4

blocking of the bindings between DLL4 and human Notch 1 receptor [3]: blocked most of the bindings
B3: MLCK-3: human monoclonal anti-DLL4 antibody; heavy chain variable region SEQ ID NO: 8, light chain variable region SEQ ID NO: 23 (antibody, V domains shown)
VH: B1 VH with S53Y, G54D, N57S, W101L
VL: B1 VL with T23S, S31N, D33A, A51S, S53N, K54H, Y94A, A98G
modifications: a heavy chain variable region of MLCK-3; a light chain variable region of MLCK-3
